Measurements from patent publication US20240254204A1 (published 2024).
Positions count from the first letter of the chain named.

How the values were obtained:
[1] = target: Bat CoV BANAL-52
[2] = target: Pangolin CoV GX-
[3] = target: SARS-CoV-2 Lambda (SARS-CoV-2 Lambda)
[4] = target: Pangolin CoV GD-1
[5] = target: Bat CoV LYRa11
[6] = target: SARS-CoV-2 Delta Plus
[7] = target: SARS-CoV-2 Delta
[8] = target: Bat CoV BANAL-236
[9] = target: Bat CoV Rs2018B (SC1r-CoV Rs2018B)
[10] = target: SARS-CoV-2 Mu
[11] = target: Bat CoV WIV-1 (SC1r-CoV WIV-1)
[12] = target: SARS-CoV-1
[13] = target: SARS-CoV-2
[14] = target: Bat CoV RsSHC014 (SC1r-CoV RsSHC014)
[15] = target: SARS-COV-2 B.1.351 RBD (SARS-CoV-2 B.1.351 (Beta))
[16] = target: SARS-COV-2 Omicron BA.2 RBD (SARS-CoV-2 Omicron BA.2)
[17] = target: SC2r-COV RaTG13 RBD (SC2r-CoV RaTG13 (bat))
[18] = target: SARS-COV-2 Omicron BA.1 RBD (SARS-CoV-2 Omicron BA.1)
[19] = target: SARS-CoV-2 Gamma

B1: F5 (antibody, V domains shown)
VH: QVQLQESGPGLVKPSETLSLTCTVSGGSIIGYYWSWIRQPPGKGLEWIGYIYFSANTNYNPSLKSRVTMSVDMSKKQFSLKLRSVTAADTAVYYCARGGGYLETGPLDFWGQGILVTVSS
VL: DIVMTQSPLSLPVTPGEPASISCRSSQSLMQLNGYNYLAWYLQRPGQSPQLLIYLGSTRASGVPDRFSGSGSGTDFTLKITRVEAEDVGVYYCMQGLQIPGTFGQGTRLEIK
- IC50 [1]: 0.027 µg/mL
- IC50 [2]: 0.025 µg/mL
- IC50 [3]: 0.014 µg/mL
- IC50 [4]: 0.019 µg/mL
- IC50 [5]: 0.01 µg/mL
- IC50 [6]: 0.03 µg/mL
- IC50 [7]: 0.034 µg/mL
- IC50 [8]: 0.033 µg/mL
- IC50 [9]: 0.015 µg/mL
- IC50 [10]: 0.024 µg/mL
- IC50 [11]: 0.012 µg/mL
- IC50 [12]: 0.019 µg/mL
- IC50 [13]: 0.03 µg/mL
- IC50 [14]: 0.012 µg/mL

B2: E7 (antibody, V domains shown)
VH: QVQLQESGPGLVKPSETLSLTCTVSGGFIGPHYWSWVRQPPGKGLEWIGYIYISGSTNYNPSLKSRLTISVDMSKSQFSLTLSSATAADTAVYYCARGGGYLETGPFEYWGQGTLVTVSS
VL: B1 VL with M30L, L32N, R44K, G56S, T81S, G96S
- IC50 [2]: 0.039 µg/mL
- IC50 [3]: 0.032 µg/mL
- IC50 [4]: 0.073 µg/mL
- IC50 [5]: 0.021 µg/mL
- IC50 [7]: 0.097 µg/mL
- IC50 [9]: 0.032 µg/mL
- IC50 [11]: 0.03 µg/mL
- IC50 [14]: 0.022 µg/mL

B3: Antibody 13 (SS6V13-F1) (antibody, V domains shown)
VH: QVQLQESGPGLVKPSETLSLTCSVSGVSILGSYWGWIRQPPGTGLQWIGYIYFSENTNYNPSLQSRVTMSLDTSKNLLSLKLSSVTAADTAVYYCARGGGYLETGPFDSWGQGTLVTVSS
VL: B1 VL with S28G, M30V, L32S, R44K, T58N, T81S, I99T
- IC50 [15]: 0.087 µg/mL

B4: Antibody 20 (SS6V20-F5) (antibody, V domains shown)
VH: B1 VH
VL: B1 VL
- IC50 [16]: 0.246 µg/mL
- IC50 [17]: 0.015 µg/mL
- IC50 [18]: 0.072 µg/mL

B5: Antibody 11 (SS6V11-E7) (antibody, V domains shown)
VH: B2 VH
VL: B1 VL with M30L, L32N, R44K, G56S, T81S, G96S
- IC50 [16]: 0.222 µg/mL
- IC50 [15]: 0.044 µg/mL

B6: F1 (antibody, V domains shown)
VH: B3 VH
VL: B1 VL with S28G, M30V, L32S, R44K, T58N, T81S, I99T
- IC50 [5]: 0.031 µg/mL
- IC50 [6]: 0.112 µg/mL
- IC50 [7]: 0.12 µg/mL
- IC50 [11]: 0.037 µg/mL
- IC50 [19]: 0.082 µg/mL
- IC50 [12]: 0.073 µg/mL
